In patent publication US20230312740A1 (VIRTUOSO BINCO, published 2023):

Columns and labels:
Human ICAM1 ECD-Avi [1] = target: T1, Human ICAM1 ECD-Avi (human, UniProt P05362 28-480); experiment: ELISA, plate coated with recombinant ICAM1
T1 construct: eluted as a monomer; also called hICAM1; recombinant ICAM1
Protocol: (§1) A 96-well plate was coated overnight at 4° C. with 1 µg/ml recombinant CD38 or ICAM1. After washing 3 times, the plate was blocked with 300 µl 1% BSA in PBST at 37° C. for 1 hour. Serially diluted antibodies were added and incubated at 37° C. for 1 hour. The plate was then washed 4 times with PBST and incubated with 1:5000 diluted 2nd antibody (Sigma, Cat# A0293) at 37° C. for 1 hour.

[2] = target: T2, ICAM1 on the surface of tumor cells (human, UniProt P05362 28-532); experiment: flow cytometry on DU145 cells
T2 construct: whole, on cells; also called ICAM1 on DU145 cells; ICAM1 on the surface of Daudi cells
Protocol: (§2) Surface expression of CD38 and ICAM1 on the transformed cell lines was quantified by flow cytometry. Harvested cells were centrifuged at 2000 rpm for 5 min, resuspended in 10 - 15 ml ice-cold culture medium, and then counted. Then, 3×10⁶ cells were resuspended per ml of blocking buffer (PBS plus 2% FBS). 100 µl of the cell suspension was dispensed into each well of a 96-well plate and incubated at room temperature for 10-20 min. […] While incubating, purified antibodies were diluted to the desired dilution with blocking buffer. After a 10-20 minutes incubation, cells were centrifuged for 5 minutes at 2000 rpm in a refrigerated centrifuge. Blocking buffer was aspirated, and the cells were resuspended in 100 µl/well diluted antibodies and incubated for 1 hour at 4° C. The cells were then washed 3 times with PBS plus 2% FBS. […] The cells were then washed 3 times with 200 µl PBS by centrifuging at 2000 rpm for 5 min. After the last wash, the cells were resuspended in 300 µl cold PBS and analyzed on a FACSVerse™ (BD Biosciences) flow cytometer.
(§3) Binding of the chimeric anti-CD38 and anti-ICAM1 antibodies to proteins on the surface of tumor cells was determined by flow cytometry, as described above.

Human ICAM1 ECD-Avi [3] = target: T1, Human ICAM1 ECD-Avi; experiment: SPR (Biacore 8K), antibody captured, monomeric ICAM1 ECD injected
Protocol: (§4) Furthermore, binding kinetics measurements of the anti-CD38 and anti-ICAM1 antibodies were not affected by antibody valency in the SPR assays because antibodies were immobilized and challenged with monomeric antigens. SPR was performed on a Biacore 8K instrument (GE Healthcare). Antibodies were captured on Biacore Series S CM5 sensor chips coated with a monoclonal mouse anti-human IgG (Fc) antibody (GE Healthcare human antibody capture kit). Serial 3-fold dilutions of antigen (CD38 ECD or ICAM1 ECD) were injected at a flow rate of 30 µl/min. Each sample was analyzed with 1 min association and 10 min dissociation at room temperature (25° C.). After each injection, the chip was regenerated using 3 M MgCl₂. A 1:1 Langmuir model of simultaneous fitting of kₒₙ and koff was used for kinetics analysis.

[4] = target: T2, ICAM1 on the surface of tumor cells; experiment: flow cytometry on Daudi cells; lower end of the range; Daudi cells
Protocol: as §2

[5] = target: T3, CD38 on the surface of tumor cells (human, UniProt P28907 1-300); experiment: cell-based or functional assay
Avi-human CD38 ECD [6] = target: T4, Avi-human CD38 ECD (human, UniProt P28907 43-300); experiment: SPR (Biacore 8K), antibody captured, monomeric CD38 ECD injected
T4 construct: eluted as a monomer; also called hCD38; huCD38
Protocol: as §4

Avi-human CD38 ECD [7] = target: T4, Avi-human CD38 ECD; experiment: ELISA, plate coated with recombinant CD38
Protocol: as §1

[8] = target: T3, CD38 on the surface of tumor cells; experiment: flow cytometry on Daudi cells
Protocol: as §2, §3

B1: anti-ICAM1 chimeric monoclonal antibody 11F2 (antibody, human IgG1, kappa, V domains shown)
VH: QSVEESGGGLVKPGGTLTLTCTVSGFSLSSHAMGWVRQAPGKGLEYIGIIGSSDRTYYASWAKGRFTISKTSTTVDLKITSPTTEDTATYFCVRDPYDSYDDGYRLWGPGTLVTVSS
VL: AYDMTQTPASVEVAVGGTVTIKCQASQSIYRYLSWYQKKPGQRPKFLIYDASKLASGVPSRFEGSGSGTEFTLTISGAQSDDAATYYCQQAYSSGSIDNAFGGGTEVVVKR
notes: Rabbit variable domains on human IgG1 / human kappa constant regions; also called chimeric 11F2
- EC50 (Human ICAM1 ECD-Avi [1]): ~0.05 nM
- EC50 [2]: 1 to 1.5 nM
- Kd (Human ICAM1 ECD-Avi [3]): 0.1 to 0.5 nM

B2: anti-ICAM1 chimeric monoclonal antibody 8B12 (antibody, human IgG1, kappa, V domains shown)
VH: QSVEESGGGLVKPGGTLTLTCTVSGFSLSTHAMGWVRQAPGKGLEYIGIIGSSDRTYYASWAKGRFTISKTSTTVDLKITSPTTEDTATYFCVRDPYDSFDDGYRLWGPGTLVTVSS
VL: AYDMTQTPASVEVAVGGTVTIKCQASQSIYSYLSWYQQKPGQRPKFLIYDASKVASGVPSRFKGSGSGTEFTLTISAVQSDDAATYYCQQAYSSSNVDNAFGGGTEVMVKR
notes: Rabbit variable domains on human IgG1 / human kappa constant regions; also called chimeric 8B12
- EC50 (Human ICAM1 ECD-Avi [1]): ~0.05 nM
- EC50 [2]: 1 to 1.5 nM
- Kd (Human ICAM1 ECD-Avi [3]): 0.1 to 0.5 nM
- EC50 [4]: 0.04 to 0.08 nM

B3: anti-CD38 chimeric monoclonal antibody 18E4 (antibody, human IgG1, kappa, V domains shown)
VH: QSLEESGGDLVKPGASLTLTCTASGFSFNNYWICWIRQAPGKGLEWVACIYSPSGDIKYYANWAKGRFTVSKTSSTTVTLQMTSLTGADTATYFCARELSGSSYEGYFESWGPGTLVTVSS
VL: AQVLTQTPSSVSAAVGGTVTINCQCSQSVYGHNWLAWYQHKPGQPPKLLMYRASNLASGVPSRFKGSGSGSQFTLTIGEVQSDDAATYYCQGYYNGGSYAFGGGTEVVVRR
notes: Rabbit variable domains on human IgG1 / human kappa constant regions; also called chimeric 18E4; Chimeric antibody 18E4
- CDC on Daudi cells, EC50 [5]: 1 to 2 nM
- Kd (Avi-human CD38 ECD [6]): 0.1 to 0.5 nM
- EC50 (Avi-human CD38 ECD [7]): ~0.05 nM
- EC50 [8]: 0.3 to 1 nM
